{"source": "paper PMC6499816", "about": "“Molecular determinants regulating selective binding of autophagy adapters and receptors to ATG8 proteins” (Nature Communications, 2019)", "key": {"PCM1 WT LIR peptide": {"biological_target": "PCM1 WT LIR peptide", "test": "BLI; biotinylated LIR peptide immobilised on streptavidin biosensors (Octet Red 96), ATG8 protein in solution; 25 mM Tris pH 7.5, 150 mM NaCl, 0.5 mM TCEP, 0.1% Tween-20, 1 mg/ml BSA, 25 °C; Kd from response against concentration, Y=Rmax*X/(Kd+X)"}, "PCM1 V1956D LIR peptide": {"biological_target": "PCM1 V1956D LIR peptide", "test": "BLI; biotinylated LIR peptide immobilised on streptavidin biosensors (Octet Red 96), ATG8 protein in solution; 25 mM Tris pH 7.5, 150 mM NaCl, 0.5 mM TCEP, 0.1% Tween-20, 1 mg/ml BSA, 25 °C; Kd from response against concentration, Y=Rmax*X/(Kd+X)"}, "FIP200 T704I LIR peptide": {"biological_target": "FIP200 T704I LIR peptide", "test": "BLI; biotinylated LIR peptide immobilised on streptavidin biosensors (Octet Red 96), ATG8 protein in solution; 25 mM Tris pH 7.5, 150 mM NaCl, 0.5 mM TCEP, 0.1% Tween-20, 1 mg/ml BSA, 25 °C; Kd from response against concentration, Y=Rmax*X/(Kd+X)"}, "PCM1 K1957I LIR peptide": {"biological_target": "PCM1 K1957I LIR peptide", "test": "BLI; biotinylated LIR peptide immobilised on streptavidin biosensors (Octet Red 96), ATG8 protein in solution; 25 mM Tris pH 7.5, 150 mM NaCl, 0.5 mM TCEP, 0.1% Tween-20, 1 mg/ml BSA, 25 °C; Kd from response against concentration, Y=Rmax*X/(Kd+X)"}, "[1]": {"biological_target": "PCM1 LIR peptide (biotinylated, BLI)", "test": "BLI; biotinylated LIR peptide (50 μg/ml) immobilised on streptavidin biosensor, ATG8 in solution; Octet Red 96; 25 mM Tris pH 7.5, 150 mM NaCl, 0.5 mM TCEP, 0.1% Tween-20, 1 mg/ml BSA; 25 °C; Kd from response against concentration"}, "[2]": {"biological_target": "ULK1 LIR peptide (biotinylated, BLI) (human)", "test": "BLI; biotinylated LIR peptide (50 μg/ml) immobilised on streptavidin biosensor, ATG8 in solution; Octet Red 96; 25 mM Tris pH 7.5, 150 mM NaCl, 0.5 mM TCEP, 0.1% Tween-20, 1 mg/ml BSA; 25 °C; Kd from response against concentration"}, "[3]": {"biological_target": "-L1 (recombinant, BLI) (human) (UniProt Q9H0R8)", "sequence (Q9H0R8 whole entry)": "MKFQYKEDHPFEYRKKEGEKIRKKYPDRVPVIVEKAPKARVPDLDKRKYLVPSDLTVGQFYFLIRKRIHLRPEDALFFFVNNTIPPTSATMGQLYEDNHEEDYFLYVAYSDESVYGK", "test": "BLI"}, "LC3B (Homo sapiens)": {"biological_target": "LC3B (Homo sapiens) (UniProt Q9GZQ8)", "test": "ITC", "settings": "cited from earlier work"}, "GFP-GABARAP F60L (human)": {"biological_target": "GFP-GABARAP F60L (human) (UniProt O95166)", "test": "co-IP; GFP-TRAP beads, lysates of HEK293A cells expressing GFP-GABARAP or GFP-LC3B constructs, TNTE buffer, 2 h at 4 °C; immunoblot of endogenous proteins, quantified"}}, "data": [{"substance": "GABARAP K24Q/Y25H/Q59E/F60L (from UniProt O95166 1-117) (natural protein)", "values": [{"measurement": "Kd", "setting": "PCM1 WT LIR peptide", "value": 250000, "unit": "nM"}]}, {"substance": "GABARAP (from UniProt O95166 1-117) (natural protein)", "values": [{"measurement": "Kd", "setting": "PCM1 V1956D LIR peptide", "value": 7720, "unit": "nM"}]}, {"substance": "LC3C (from UniProt Q9BXW4 1-126) (natural protein)", "values": [{"measurement": "Kd", "setting": "FIP200 T704I LIR peptide", "value": 2000, "unit": "nM"}, {"measurement": "Kd", "setting": "PCM1 K1957I LIR peptide", "value": 384, "unit": "nM"}]}, {"substance": "GABARAP (recombinant, BLI) (from UniProt O95166 1-117) (natural protein)", "values": [{"measurement": "Kd", "setting": "[1]", "value": 2000, "unit": "nM"}, {"measurement": "Kd", "setting": "[2]", "value": 50, "unit": "nM"}]}, {"substance": "PCM1 LIR peptide mutated at P1962 (X7) (BLI) (from UniProt Q15154)", "values": [{"measurement": "Kd", "setting": "[3]", "value": 880, "unit": "nM"}]}, {"substance": "GABARAP K24Q (from UniProt O95166 1-117) (natural protein)", "values": [{"measurement": "Kd", "setting": "PCM1 WT LIR peptide", "value": 16600, "unit": "nM"}]}, {"substance": "GABARAP Y25H (from UniProt O95166 1-117) (natural protein)", "values": [{"measurement": "Kd", "setting": "PCM1 WT LIR peptide", "value": 11400, "unit": "nM"}]}, {"substance": "p62 LIR (from UniProt Q13501)", "values": [{"measurement": "Kd", "setting": "LC3B (Homo sapiens)", "value": 3200, "unit": "nM"}]}, {"substance": "LC3A (from UniProt Q9H492 1-121) (natural protein)", "values": [{"measurement": "Kd", "setting": "PCM1 K1957I LIR peptide", "value": 3930, "unit": "nM"}]}, {"substance": "GABARAP-L1 (recombinant, BLI) (from UniProt Q9H0R8 1-117) (natural protein)", "values": [{"measurement": "Kd", "setting": "[1]", "value": 1600, "unit": "nM"}, {"measurement": "Kd", "setting": "[2]", "value": 48, "unit": "nM"}]}, {"substance": "PCM1 (pericentriolar material 1), Q15154-5 1-2016", "values": [{"measurement": "percent reduction of interaction against WT GABARAP", "setting": "GFP-GABARAP F60L (human)", "value": 90, "unit": "%"}]}, {"substance": "GABARAP K24Q/Y25H/R28K (from UniProt O95166 1-117) (natural protein)", "values": [{"measurement": "Kd", "setting": "PCM1 WT LIR peptide", "value": 66000, "unit": "nM"}]}]}
